B1: 78-1e1-: mutant luciferase, SEQ ID NO:21 (protein)
chain: MADKNILYGPEPFYPLADGTAGEQMFDALSRYADIPGCIALTNAHTKENVLYEEFLKLSCRLAESFKKYGLKQNDTIAVCSENGLQYFLPVIASLYLGIIAAPVSDKYIERELIHSLGIVKPRIIFCSKNTFQKVLNVKSKLKYVETIIILDLNEDLGGYQCLNNFISQNSDINLDVKKFKPNSFNRDDQVALVMFSSGTTGVPKGVMLTHKNIVARFSIAKDPTFGNAINPTTAILTVIPFHHGFGMMTTLGYFTCGFRVVLMHTFEEKLFLQSLQDYKVESTLLVPTLMAFLAKSALVEKYDLSHLKEIASGGAPLSKEIGEMVKKRFKLNFVRQGYGLTETTSAVLITPKXXARPGSTGKIVPFHAVKVVDPTTGKILGPNEPGELYFKGAMIMKGYYNNEEATKAIIDKDGWLRSGDIAYYDNDGHFYIVDRLKSLIKYKGYQVAPAEIEGILLQHPYIVDAGVTGIPDEAAGELPAAGVVVQTGKYLNEQIVQNFVSSQVSTAKWLRGGVKFLDEIPKGSTGKIDRKVLRQMFEKHTNG
modifications: not fully specified; X: residue not identified in the source
B2: 78-2b4: mutant luciferase, SEQ ID NO:22 (protein)
chain: MADKNILYGPEPFYPLADGTAGEQMFDALSRYADIPGCIALTNAHTKENVLYEEFLKLSCRLAESFKKYGLKQNDTIAVCSENGLQFFLPVIASLYLGIIAAPVSDKYVERELIHSLGIVKPRIIFCSKNTFQKVLNVKSKLKYVETIIILDLNEDLGGYQCLNNFISQNSDSNLDVKKFKPNSFNRDDQVALVMFSSGTTGVPKGVMLTHKNIVARFSLAKDPTFGNAINPTTAILTVIPFHHGFGMMTTLGYFTCGFRVVLMHTFEEKLFLQSLQDYKVESTLLVPTLMAFLAKSALVEKYDLSHLKEIASGGAPLSKEIGEMVKKRFKLNFVRQGYGLTETTSAVLITPKXXARPGSTGKIVPFHAVKVVDPTTGKILGPNETGELYFKGAMIMKGYYNNEEATKAIIDKDGWLRSGDIAYYDNDGHFYIVDRLKSLIKYKGYQVAPAEIEGILLQHPYIVDAGVTGIPDEAAGELPAAGVVVQTGKYLNEQIVQNFVSSQVSTAKWLRGGVKFLDEIPKGSTGKIDRKVLRQMFEKHTNG
modifications: not fully specified; X: residue not identified in the source
B3: 85(86)-4f12: mutant luciferase, SEQ ID NO:23 (protein)
chain: MADKNILYGPEPFYPLADGTAGEQMFDALSRYADIPGCIALTNAHTKENVLYEEFLKLSCRLAESFKKYGLKQNDTIAVCSENGLQFFLPVIASLYLGIIVAPVNDKYIERELIHSLGIVKPRIIFCSKNTFQKVLNVKSKLKSVETIIILDLNEDLGGYQCLNNFISQNSDINLDVKKFKPYSFNRDDQVALIMFSSGTTGLPKGVMLTHKNIVARFSLAKDPTFGNAINPTTAILTVIPFHHGFGMMTTLGYFTCGFRVVLMHTFEEKLFLQSLQDYKVESTLLVPTLMAFLAKSALVEKYDLSHLKEIASGGAPLSKEIGEMVKKRFKLNFVRQGYGLTETTSAVLITPKXXARPGSTGKIVPFHAVKVVDPTTGKILGPNEPGELYFKGPMIMKGYYNNEEATKAIIDNDGWLRSGDIAYYDNDGHFYIVDRLKSLIKYKGYQVAPAEIEGILLQHPYIVDAGVTGIPDEAAGELPAAGVVVQTGKYLNEQIVQDFVSSQVSTAKWLRGGVKFLDEIPKGSTGKIDRKVLRQMFEKHTNG
modifications: not fully specified; X: residue not identified in the source
B4: 49-6c10: mutant luciferase, SEQ ID NO:15 (protein)
chain: MEDKNILYGPEPFYPLADGTAGEQMFYALSRYADISGCIALTNAHTKENVLYEELLKLSCRLAESFKKYGLKQNDTIAVCSENGLQFFLPIIASLYLGIIAAPVSDKYIERELIHSLGIVKPRIIFCSKNTFQKVLNVKSKLKYVETIIILDLNEDLGGYQCLNNFISQNSDINLDVKKFKPYSFNRDDQVALVMFSSGTTGVSKGVMLTHKNIVARFSHAKDPTFGNAINPTTAILTVIPFHHGFGMMTTLGYFTCGFRVVLMHTFEEKLFLQSLQDYKVESTLLVPTLMAFFAKSALVEKYDLSHLKEIASGGAPLSKEIGEMVKKRFKLNFVRQGYGLTETTSAVLITPNNDVRPGSTGKIVPFHAVKVVDPTTGKILGPNETGELYFKGDMIMKGYYNNEEATKAIINKDGWLRSGDIAYYDNDGHFYIVDRLKSLIKYKGYQVAPAEIEGILLQHPYIVDAGVTGIPDEAAGELPAAGVVVQTGKYLNEQIVQNFVSSQVSTAKWLRGGVKFLDEIPKGSTGKIDRKVLRQMFEKHTNG
modifications: Mutant luciferase
B5: 49-0g12: mutant luciferase, SEQ ID NO:16 (protein)
chain: MEDKNILYGPEPFYPLADGTAGEQMFYALSRYADISGCIALTNAHTKENVLYEEFLKLSCRLAESFKKYGLKQNDTIAVCSENGLQFFLPIIASLYLGIIAAPVSDKYIERELIHSLGIVKPRIIFCSKNTFQKVLNVKSKLKYVETIIILDLNEDLGGYQCLNNFISQNSDINLDVKKFKPYSFNRDDQVALVMFSSGTTGVSKGVMLTHKNIVVRFSLAKDPTFGNAINPTTAILTVIPFHHGFGMMTTLGYFTCGFRVVLMHTFEEKLFLQSLQDYKVESTLLVPTLMAFFAKSALVEKYDLSHLKEIASGGAPLSKEIGEMVKKRFKLNFVRQGYGLTETTSAVLITPNNDVRPGSTGKIVPFHAVKVVDPTTGKILGPNETGELYFKGDMIMKGYYNNEEATKAIITKDGWLRSGDIAYYDNDGHFYIVDRLKSLIKYKGYQVAPAEIEGILLQHPYIVDAGVTGIPDEAAGELPAAGVVVQTGKYLNEQIVQNFVSSQVSTAKWLRGGVKFLDEIPKGSTGKIDRKVLRQMFEKHTNG
modifications: Mutant luciferase

Experiments:
[1] = Robotic quantitative screen of E. coli lysates: luminescence activity (Li), expression/specific activity; assay type: biochemical; settings: relative value
Description: A plate containing cells is retrieved from the carousel and placed on the shaker for 3-5 minutes to fully mix the cells. The cells tend to settle from solution upon standing.
To measure Optical Density (O.D.), the plate is moved from the shaker to the locator near the luminometer; the lid is removed and the plate placed into the luminometer. The O.D. is measured using a 620 nm filter.
To prepare a cell lysate, the plate of cells is first retrieved from the refrigerator and mixed on the shaker to resuspend the cells. A new plate from the carousel without a lid is placed in the reagent dispenser and 20 μl of Buffer A is added to each well. This is placed in the pipetting station.
The plate is then moved to the reagent dispenser to add 175 μl of Buffer B, and then mixed on the shaker for about 15 minutes or more. The combination of the freeze/thaw and Buffer B will cause the cells to lyse.
(§1) One daughter plate is placed in the luminometer and the 1X assay method is used. After the assay, the plate is placed in the ambient incubator, and the second daughter plate is placed in the luminometer. For the second plate, the 0.02X assay method is used. This plate is discarded, and the first plate is returned from the incubator to the luminometer. The repeat assay method is used (i.e., no reagent is injected). Afterwards, the plate is again returned to the ambient incubator.
1X Assay reagent: 5 μM Luciferin; 175 μM ATP; 20 mM Tricine, pH 8.0; 0.1 mM EDTA
(§2) The following criteria were used for screening purposes. The temperature chosen for the enzyme stability parameter was such that the parent enzyme would decay 100 to 1000 fold over 10 hours (see Table 1). Criteria 1 is achieved manually; data for criteria 2-6 is generated by robotic analysis. For all criteria, the maximum value as described is selected. • 1. In vivo screen. The brightest clones are selected at a given temperature. • 2. Expression/specific activity. The value for normalized luminescence is calculated as the ratio of luminescence to optical density. The value is reported as the ratio with the reference value. • 3. Enzyme stability. Measurements of normalized luminescence of the incubated samples (3 taken over about 15 hours) are fitted to In(L)=In(L0)−(t/τ), where L is normalized luminescence and t is time. τ is a measure of the enzyme stability. The value is reported as the ratio with the reference value, and the correlation coefficients are calculated. • 4. Substrate binding. Measurements of normalized luminescence with 1X and 0.02X are taken at the initial reading set, and 1X and 0.06X are taken at the 5 hour set. The ratio of the 0.02X:1X and 0.06X:1X gives the relative luminescence at 0.02X and 0.06X concentrations. These values, along with the relative luminescence at 1X (i.e., 1), are fitted to a Lineweaver-Burk plot to yield the Km:app,total for the substrates ATP, luciferin, and CoA. The values are reported as the inverse ratio with the reference value, and the correlation coefficients are calculated. • 5. Signal stability. The luminescence of the initial IX luminescent reactions are re-measured 3 additional times over about 15 hours. These values are fitted to In(L)=In(L0)−(t/τ) and the integral over t (15 hours) is calculated. Signal stability is then calculated as S=(1−int(L)/L0t)^2. The values are reported as the inverse ratio with the reference value, and the correlation coefficients are calculated. • 6. Composite fitness. The values of criteria 2 through 5 are combined into a single composite value of fitness (or commercial utility). This value is based on a judgment of the relative importance of the other criteria. This judgment is given below:
Normalize luminescence data: For each measurement of luminescence in the eight daughter plates, the normalized luminescence is calculated by dividing the relative light units by the optical density of the original plate. […]

[2] = Robotic quantitative screen of E. coli lysates: enzyme stability (tau) at elevated temperature; assay type: physicochemical; settings: relative value
Description: Two white assay plates (Labsystems #9502887) are obtained from the plate feeder and placed in the pipetter. The incubation plate from the shaker is placed in the pipetter, and the lid removed and placed on the nearby locator. Two daughter plates are made using the pipetting procedure (see “Create Pair of Daughter Plates from Incubation Plate”). Afterwards, the lid is replaced on the parent plate, and the plate is placed in a high temperature incubator. [ranging from 31° C. to about 65° C. depending on the clone.]
To begin the second set of measurements, the plate from the high temperature incubator is placed in the shaker to mix.
In the final set of measurements, the plate from the high temperature incubator is again placed in the shaker to mix.
as §2
Calculate enzyme stability (τ): For each sample, use linear regression to fit In(L1x)=In(L0)−(t/τ) using the three luminescence measurements with 1X substrate concentrations (Plates 1, 5, 8). Also calculate the regression coefficient.
Calculate the reference-normalized values: For the criteria parameter of each sample, a reference-normalized value is determined by calculating the ratio or inverse ratio with the respective reference value. The reference-normalized values are Li/Lir, τ/τr, Kmr/Km:app,total, and Sr/S, where reference values are calculated from the equations of the appropriate reference surface.
“Enzyme stability” was determined by the rate of activity loss from cell lysates over 10 hours. In successive rounds of evolution the incubation temperature of the lysates was increased.
Robotic Automation: Robotic automation was used in the quantitative screens to accurately perform the large number of required quantitative assays on the cultured cells. […]

[3] = Robotic quantitative screen of E. coli lysates: signal stability (S), sustained enzymatic turnover; assay type: biochemical; settings: inverse ratio with reference
Description: as §1
The plate in the ambient incubator is returned to the luminometer and the repeat assay method is again used. The plate is returned afterwards to the ambient incubator.
The plate in the ambient incubator is returned to the luminometer and the repeat assay method is again used. The plate is discarded afterwards.
as §2
Calculate signal stability (S): For each sample, use linear regression to fit In(L)=In(L0)[…] using the four luminescence measurements of the initial microplate with 1X substrate concentrations (Plates 1, 3, 4, and 7). Also calculate the regression coefficient. From the calculated values of T and L0, calculate the integral of luminescence by int(L)=τL0(1−exp(−tf/τ)), where tf is the average time of the last measurement (e.g., 15 hours). The signal stability is calculated as S=(1−int(L)/Litf)^2, where Li is the initial measurement of normalized luminescence with 1× substrate concentration (Plate 1).
[Note: To correct for evaporation, an equation S=(1+K−int(L)/Litf)^2, may be used where 1/K=2(relative change of liquid volume at tf).]
Calculate the reference-normalized values: For the criteria parameter of each sample, a reference-normalized value is determined by calculating the ratio or inverse ratio with the respective reference value. […]

[4] = Control is Luc71-5D4 at 60° C. (=1)
[5] = Control is Luc84-3A6 at 64° C. (=1)
[6] = Control is Luc46-2H3 at 54° C. (=1)

Molecule | Luminescence (Li) [1, 4] | Enzyme stability (tau) [2, 4] | Signal stability (S) [3, 4] | Luminescence (Li) [1, 6] | Enzyme stability (tau) [2, 6] | Signal stability (S) [3, 6] | also measured
B1 | 0.54 | 8.9 | 0.9877 | – | – | – | –
B2 | 1.97 | 1.36 | 1.0094 | – | – | – | –
B3 | – | – | – | – | – | – | Luminescence (Li) [1, 5]: 1.1167; Enzyme stability (tau) [2, 5]: 4.7851; Signal stability (S) [3, 5]: 1.0092
B4 | – | – | – | 0.57 | 2.2 | 1 | –
B5 | – | – | – | 1 | 1.58 | 1.08 | –
